Results: US20140186363A1 (UNIVERSITY OF ZURICH, published 2014)

B1: 32H2 (antibody, V domains shown)
VH: QVQLVESGGGVVQPGRSLRLSCAASGFTFSSNAMHWVRQAPGKGLEWVAVISHDGSNKYYADSVKGRFTISRDNSKNTLYLQMNSLRAEDTAVYYCARDGSGSYFNLDYWGQGTLVTVSS
VL: QSALTQPASVSGSPGQSITISCTGTSSDVGGYNYVSWYQQHPGKAPKLMIYEVSNRPSGVSNRFSGSKSGNTASLTISGLQAEDEADYYCSSYTSSSTLVFGTGTKVTVL
notes: Patient-derived human antibody made recombinantly; also called human monoclonal antibody 32H2
B2: 34G9 (antibody, V domains shown)
VH: EVQLEESGGDLVQPGGSLRLSCAASGFTFSHYWMHWVRQAPGKGLVWVSRINSDGSSTSYADSVKGRFTISRDNAKNTLYLQMNSLRAEDTAVYYCARIGSDGYNYDFWGQGTLVTVSS
VL: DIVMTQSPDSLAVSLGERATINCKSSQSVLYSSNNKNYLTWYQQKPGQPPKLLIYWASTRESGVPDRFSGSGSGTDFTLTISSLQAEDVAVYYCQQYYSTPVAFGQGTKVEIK
notes: Patient-derived human antibody made recombinantly; also called human monoclonal antibody 34G9
B3: 102G10 (antibody, V domains shown)
VH: EVQLVESGGGLVKPGGSLRLSCAASGFTFSGNSMNWVRQAPGKGLEWVSSISSSSGYIYYADSVKGRFTVSRDNAKNSLYLQMNSLRAEDTAVYYCATWPVTTARVGYWGQGTLVTVSS
VL: QSVLTQPPSASGTPGQRVTISCSGSSSNIGSNYVYWHQQLPGTAPKLLIYRHDQRPSGVPDRFSGSKSGTSASLAISGLRSEDEADYYCAAWDDSLSAWVFGGGTKLTVL
notes: Patient-derived human antibody made recombinantly; also called human monoclonal antibody 102G10

Tests used:
[1] = target: T1, MAGEA4 (UniProt P43358 1-317, limits assumed); assay: Western blot of recombinant protein, anti-human IgG-HRP
T1 construct: also called recombinant MAGEA4-protein; CT1.4
T1 sequence (looked up): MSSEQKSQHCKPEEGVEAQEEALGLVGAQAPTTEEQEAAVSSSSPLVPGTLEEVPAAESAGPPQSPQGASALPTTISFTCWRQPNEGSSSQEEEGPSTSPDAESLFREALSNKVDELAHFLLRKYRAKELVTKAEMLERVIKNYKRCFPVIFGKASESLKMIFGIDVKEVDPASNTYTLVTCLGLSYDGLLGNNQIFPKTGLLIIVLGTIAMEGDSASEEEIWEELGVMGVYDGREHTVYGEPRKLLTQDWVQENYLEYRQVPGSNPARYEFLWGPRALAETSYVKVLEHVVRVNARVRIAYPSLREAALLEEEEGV
Protocol: Recombinant MAGEA3- and recombinant MAGEA4-protein were separated in SDS-PAGE and blotted onto membranes. Membranes were incubated with human antibodies 122G3 or 32H2. Binding of human antibodies to proteins on the membrane was evaluated using an HRP-labeled goat anti human IgG (Jackson Immunoresearch, Milan Analytica AG, Rheinfelden, Switzerland). The results are depicted in FIG. 3.

[2] = target: T2, MAGEA3 peptide no 15; assay: peptide ELISA (coated 20mer) [Figure 1]
T2 construct: also called MAGEA3 aa 141-160
T2 peptide: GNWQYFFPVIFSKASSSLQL
Protocol: (§1) 20mer peptides spanning the entire MAGEA3 protein with 10 aa overlaps shared by each adjacent peptide (Peptides&Elephants, Nuthetal, Germany) were used to coat Maxisorp ELISA plates (Nunc, Rochester, N.Y.). As control a 20mer peptide representing amino acids 40-21 from the NY-ESO-1 protein was used (rev). The numbering of amino acids of MAGEA3 is based on SEQ ID No:41.
(§2) Human recombinant antibody was used at a concentration of 1 μg/ml. Bound human antibody was detected using horseradish peroxidase-conjugated goat anti-human IgG Fc-gamma specific antibodies (Jackson ImmunoResearch, Europe Ltd., Cambridgeshire, UK).

[3] = target: T3, MAGEA3 peptide no 27; assay: peptide ELISA (coated 20mer) [Figure 1]
T3 construct: also called MAGEA3 aa 261-280
T3 peptide: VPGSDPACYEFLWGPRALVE
Protocol: as §1, §2

[4] = target: T4, MAGEA3 peptide no 28; assay: peptide ELISA (coated 20mer) [Figure 1]
T4 construct: also called MAGEA3 aa 271-290
T4 peptide: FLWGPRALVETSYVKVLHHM
Protocol: as §1, §2

[5] = target: T5, MAGEA3 peptide no 23; assay: peptide ELISA (coated 20mer) [Figure 1]
T5 construct: also called MAGEA3 aa 221-240
T5 peptide: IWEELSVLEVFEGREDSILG
Protocol: as §1, §2

[6] = target: T6, MAGEA3 peptide no 31; assay: peptide ELISA (coated 20mer) [Figure 1]
T6 construct: also called MAGEA3 aa 295-314
T6 peptide: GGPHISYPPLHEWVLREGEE
Protocol: as §1, §2

[7] = target: T7, MAGEA3 peptide no 4; assay: peptide ELISA (coated 20mer) [Figure 1]
T7 construct: also called MAGEA3 aa 31-50
T7 peptide: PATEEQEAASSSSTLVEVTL
Protocol: as §1, §2

[8] = target: T8, MAGEA3 peptide no 26; assay: peptide ELISA (coated 20mer) [Figure 1]
T8 construct: also called MAGEA3 aa 251-270
T8 peptide: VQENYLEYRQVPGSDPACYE
Protocol: as §1, §2

[9] = target: T9, MAGEA3 peptide no 9; assay: peptide ELISA (coated 20mer) [Figure 1]
T9 construct: also called MAGEA3 aa 81-100
T9 peptide: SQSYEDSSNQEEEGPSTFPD
Protocol: as §1, §2

[10] = target: T10, MAGEA3 peptide no 1; assay: peptide ELISA (coated 20mer) [Figure 1]
T10 construct: also called MAGEA3 aa 1-20
T10 peptide: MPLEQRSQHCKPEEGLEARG
Protocol: as §1, §2

[11] = target: T11, MAGEA3 peptide no 21; assay: peptide ELISA (coated 20mer) [Figure 1]
T11 construct: also called MAGEA3 aa 201-220
T11 peptide: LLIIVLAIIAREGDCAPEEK
Protocol: as §1, §2

[12] = target: T12, MAGEA3 peptide no 8; assay: peptide ELISA (coated 20mer) [Figure 1]
T12 construct: also called MAGEA3 aa 71-90
T12 peptide: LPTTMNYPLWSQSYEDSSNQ
Protocol: as §1, §2

[13] = target: T13, MAGEA3 peptide no 18; assay: peptide ELISA (coated 20mer) [Figure 1]
T13 construct: also called MAGEA3 aa 171-190
T13 peptide: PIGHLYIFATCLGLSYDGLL
Protocol: as §1, §2

[14] = target: T14, MAGEA3 peptide no 20; assay: peptide ELISA (coated 20mer) [Figure 1]
T14 construct: also called MAGEA3 aa 191-210
T14 peptide: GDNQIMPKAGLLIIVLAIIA
Protocol: as §1, §2

[15] = target: T15, MAGEA3 peptide no 12; assay: peptide ELISA (coated 20mer) [Figure 1]
T15 construct: also called MAGEA3 aa 111-130
T15 peptide: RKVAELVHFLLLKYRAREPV
Protocol: as §1, §2

[16] = target: T16, MAGEA3 peptide no 2; assay: peptide ELISA (coated 20mer) [Figure 1]
T16 construct: also called MAGEA3 aa 11-30
T16 peptide: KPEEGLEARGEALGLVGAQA
Protocol: as §1, §2

[17] = target: T17, MAGEA3 peptide no 30; assay: peptide ELISA (coated 20mer) [Figure 1]
T17 construct: also called MAGEA3 aa 291-310
T17 peptide: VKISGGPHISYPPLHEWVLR
Protocol: as §1, §2

[18] = target: T18, MAGEA3 peptide no 29; assay: peptide ELISA (coated 20mer) [Figure 1]
T18 construct: also called MAGEA3 aa 281-300
T18 peptide: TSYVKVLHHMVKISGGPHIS
Protocol: as §1, §2

[19] = target: T19, MAGEA3 peptide no 19; assay: peptide ELISA (coated 20mer) [Figure 1]
T19 construct: also called MAGEA3 aa 181-200
T19 peptide: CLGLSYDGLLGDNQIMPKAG
Protocol: as §1, §2

[20] = target: T20, MAGEA3 peptide no 17; assay: peptide ELISA (coated 20mer) [Figure 1]
T20 construct: also called MAGEA3 aa 161-180
T20 peptide: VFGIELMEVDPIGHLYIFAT
Protocol: as §1, §2

[21] = target: T21, MAGEA3 peptide no 3; assay: peptide ELISA (coated 20mer) [Figure 1]
T21 construct: also called MAGEA3 aa 21-40
T21 peptide: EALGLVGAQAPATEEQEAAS
Protocol: as §1, §2

[22] = target: T22, MAGEA3 peptide no 11; assay: peptide ELISA (coated 20mer) [Figure 1]
T22 construct: also called MAGEA3 aa 101-120
T22 peptide: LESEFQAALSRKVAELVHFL
Protocol: as §1, §2

Binder	binding result [1]	binding result [2]	binding result [3]	binding result [4]	binding result [5]	binding result [6]	binding result [7]	binding result [8]	binding result [9]	binding result [10]	binding result [11]	binding result [12]	binding result [13]	binding result [14]	binding result [15]	binding result [16]	binding result [17]	binding result [18]	binding result [19]	binding result [20]	further results
B1	no binding																				
B2	no binding	no binding (tested: 1 µg/ml)	no binding (tested: 1 µg/ml)	no binding (tested: 1 µg/ml)	no binding (tested: 1 µg/ml)	no binding (tested: 1 µg/ml)	no binding (tested: 1 µg/ml)	no binding (tested: 1 µg/ml)	no binding (tested: 1 µg/ml)	no binding (tested: 1 µg/ml)	no binding (tested: 1 µg/ml)	no binding (tested: 1 µg/ml)	no binding (tested: 1 µg/ml)	no binding (tested: 1 µg/ml)	no binding (tested: 1 µg/ml)	no binding (tested: 1 µg/ml)	no binding (tested: 1 µg/ml)	no binding (tested: 1 µg/ml)	no binding (tested: 1 µg/ml)	no binding (tested: 1 µg/ml)	binding result [21]: no binding (tested: 1 µg/ml); binding result [22]: no binding (tested: 1 µg/ml)
B3	no binding	no binding (tested: 1 µg/ml)	no binding (tested: 1 µg/ml)	no binding (tested: 1 µg/ml)	no binding (tested: 1 µg/ml)	no binding (tested: 1 µg/ml)	no binding (tested: 1 µg/ml)	no binding (tested: 1 µg/ml)	no binding (tested: 1 µg/ml)	no binding (tested: 1 µg/ml)	no binding (tested: 1 µg/ml)	no binding (tested: 1 µg/ml)	no binding (tested: 1 µg/ml)	no binding (tested: 1 µg/ml)	no binding (tested: 1 µg/ml)	no binding (tested: 1 µg/ml)	no binding (tested: 1 µg/ml)	no binding (tested: 1 µg/ml)	no binding (tested: 1 µg/ml)	no binding (tested: 1 µg/ml)	binding result [21]: no binding (tested: 1 µg/ml); binding result [22]: no binding (tested: 1 µg/ml)
